Laboratory results: patent publication US20230002488A1 (SYSTIMMUNE, published 2023)

Assays:
human EGFR [1] = target: T1, human EGFR (human, UniProt P00533 25-645); experiment: BLI (Octet), GNC on AHC sensor, His-tagged human EGFR as analyte, global 1:1 fit
T1 construct: also called huEGFR; His-tagged human EGFR

human CD19 = target: T2, human CD19 (human, UniProt P15391 20-291); experiment: BLI (Octet), GNC on AHC sensor; strong binding, dissociation too slow to quantify KD
T2 sequence (looked up): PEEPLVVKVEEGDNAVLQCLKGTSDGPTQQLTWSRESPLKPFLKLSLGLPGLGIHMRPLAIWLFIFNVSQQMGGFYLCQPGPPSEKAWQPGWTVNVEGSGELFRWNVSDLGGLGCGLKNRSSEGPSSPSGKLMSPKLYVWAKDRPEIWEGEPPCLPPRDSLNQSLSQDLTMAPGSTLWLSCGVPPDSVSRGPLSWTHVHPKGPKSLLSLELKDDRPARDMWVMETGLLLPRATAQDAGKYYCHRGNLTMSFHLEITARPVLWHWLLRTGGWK

human EGFR [2] = target: T1, human EGFR; experiment: BLI (Octet), GNC on AHC sensor, antigen as analyte, 1:1 fit
human PD-L1 = target: T3, human PD-L1 (human, UniProt Q9NZQ7 19-238); experiment: BLI (Octet), GNC on AHC sensor, 100 nM antigen as analyte, 1:1 fit
T3 construct: Bought antigen; construct not described

human 4-1BB = target: T4, human 4-1BB (human, UniProt Q07011 24-186); experiment: as above
T4 construct: Bought antigen; construct not described

- Kd (human EGFR [1]): 7.41 nM
- binding result (human CD19): binds
- Kd (human EGFR [2]): 7.41 nM
- Kd (human PD-L1): 0.407 nM
- Kd (human 4-1BB): 7.55 nM
B1: SI-55P9 (antibody, human IgG1, kappa)
heavy: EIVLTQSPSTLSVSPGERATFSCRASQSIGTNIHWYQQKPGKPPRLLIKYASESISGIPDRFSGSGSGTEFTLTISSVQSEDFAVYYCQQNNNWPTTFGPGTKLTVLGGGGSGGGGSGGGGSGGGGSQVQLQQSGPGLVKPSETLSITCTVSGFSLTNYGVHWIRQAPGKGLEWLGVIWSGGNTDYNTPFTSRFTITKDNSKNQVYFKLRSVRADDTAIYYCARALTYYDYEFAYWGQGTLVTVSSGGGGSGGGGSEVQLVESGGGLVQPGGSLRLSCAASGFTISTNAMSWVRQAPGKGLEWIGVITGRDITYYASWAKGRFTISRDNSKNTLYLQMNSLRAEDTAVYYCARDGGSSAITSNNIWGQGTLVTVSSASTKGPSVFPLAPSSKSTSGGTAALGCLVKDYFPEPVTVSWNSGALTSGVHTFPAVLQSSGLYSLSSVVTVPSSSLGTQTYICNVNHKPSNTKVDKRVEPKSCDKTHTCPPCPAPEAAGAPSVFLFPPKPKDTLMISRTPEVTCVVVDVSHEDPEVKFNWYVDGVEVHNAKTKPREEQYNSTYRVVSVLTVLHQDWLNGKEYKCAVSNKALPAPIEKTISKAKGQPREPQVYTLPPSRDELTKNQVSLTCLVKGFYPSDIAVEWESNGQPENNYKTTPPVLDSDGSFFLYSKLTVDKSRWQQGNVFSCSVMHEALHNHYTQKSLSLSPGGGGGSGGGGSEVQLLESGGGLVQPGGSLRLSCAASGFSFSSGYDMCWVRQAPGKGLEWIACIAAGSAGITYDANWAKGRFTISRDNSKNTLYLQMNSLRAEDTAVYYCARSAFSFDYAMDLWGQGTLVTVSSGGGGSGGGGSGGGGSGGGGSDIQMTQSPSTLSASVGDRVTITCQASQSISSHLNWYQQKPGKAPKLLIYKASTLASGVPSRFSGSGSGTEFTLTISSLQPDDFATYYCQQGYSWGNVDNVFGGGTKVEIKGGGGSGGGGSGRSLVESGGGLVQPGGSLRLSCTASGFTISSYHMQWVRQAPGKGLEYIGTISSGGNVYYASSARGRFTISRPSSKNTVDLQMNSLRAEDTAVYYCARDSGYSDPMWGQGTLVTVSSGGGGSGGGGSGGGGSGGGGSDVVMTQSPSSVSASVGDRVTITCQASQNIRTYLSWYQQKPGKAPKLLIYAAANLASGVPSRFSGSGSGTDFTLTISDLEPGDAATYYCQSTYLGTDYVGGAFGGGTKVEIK
light: ENVLTQSPASLSASPGERVTITCSASSSVSYMHWYQQKPGQAPKLWIYDTSKLASGVPSRFSGSGSGNDHTLTISSMEPEDFATYYCFQGSVYPFTFGQGTKVTVLGGGGSGGGGSGGGGSGGGGSQVTLKESGPGLVQPGQTLRLTCAFSGFSLSTSGMGVGWIRQPPGKGLEWLAHIWWDDDKRYNPALKSRLTISKDTSKNQVYLQMNSLDAEDTAVYYCARMELWSYYFDYWGQGTLVTVSSGGGGSGGGGSDVVMTQSPSTLSASVGDRVTINCQASESISSWLAWYQQKPGKAPKLLIYEASKLASGVPSRFSGSGSGTEFTLTISSLQPDDFATYYCQGYFYFISRTYVNSFGGGTKVEIKRTVAAPSVFIFPPSDEQLKSGTASVVCLLNNFYPREAKVQWKVDNALQSGNSQESVTEQDSKDSTYSLSSTLTLSKADYEKHKVYACEVTHQGLSSPVTKSFNRGEC
notes: Penta-specific: D1 humanized anti-EGFR H7 scFv, D2 CD3, D3 PD-L1, D4 4-1BB, D6 CD19
